The numbers were not newly measured in PMC5012591, which cites them from elsewhere.

In this series the target is flagellar motor switch protein FliM (Escherichia coli) (UniProt P06974).
Sequence of UniProt P06974 (P06974 whole entry): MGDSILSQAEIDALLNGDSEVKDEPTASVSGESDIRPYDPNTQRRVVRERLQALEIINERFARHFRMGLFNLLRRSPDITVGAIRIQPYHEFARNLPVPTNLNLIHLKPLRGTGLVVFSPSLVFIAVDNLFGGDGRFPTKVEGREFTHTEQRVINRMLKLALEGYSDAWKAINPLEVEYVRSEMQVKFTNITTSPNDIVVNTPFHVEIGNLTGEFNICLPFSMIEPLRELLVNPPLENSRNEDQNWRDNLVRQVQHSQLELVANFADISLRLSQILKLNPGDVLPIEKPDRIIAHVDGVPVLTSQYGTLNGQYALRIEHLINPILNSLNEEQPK

For orientation: Kd means the free concentration of one partner at which half of the binding sites on the other are occupied at equilibrium, for simple one-to-one binding. For the substance CheY-P (from UniProt P0AE67), the Kd was 3.06 µM.
